Test results as given in patent US20240317834A1, “COMPOSITIONS AND METHODS FOR NEUROLOGICAL DISEASES” (CODA BIOTHERAPEUTICS, INC., priority 2020, published 2024).

Tested on: Lenti-X 293T cells
Assay: YFP fluorescence quenching anion reporter plate reader assay of engineered receptors stimulated with acetylcholine or a non-native ligand
Assay type: cell-based
Details: for percent quench of YFP fluorescence, 10 uM ach: acetylcholine 10 uM; for percent quench of YFP fluorescence, 100 uM ach: acetylcholine 100 uM; for percent quench of YFP fluorescence, 300 uM ach: acetylcholine 300 uM; for percent quench of YFP fluorescence, 1 mM ach: acetylcholine 1 mM; for percent quench of YFP fluorescence, 3 mM ach: acetylcholine 3 mM; for percent quench of YFP fluorescence, 30 uM ach: acetylcholine 30 uM
Summary of the method: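 Lenti-X 293T cells carrying a YFP anion reporter were transiently transfected with channel DNA and assayed the next day in HEPES-buffered ECS at pH 7.2. Ligand (acetylcholine or non-native ligand) was added in NaI-substituted ECS. Percent quench was the mean of the last 10 s relative to the 15 s pre-addition baseline.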

B1: CODA1053: engineered chimeric LGIC receptor, R101M, L131A in SEQ ID NO: 33 (protein)
chain: MRCSPGGVWLALAASLLHVSLQGEFQRKLYKELVKNYNPLERPVANDSQPLTVYFSLSLLQIMDVDEKNQVLTTNIWLQMSWTDHYLQWNVSEYPGVKTVMFPDGQIWKPDILLYNSADERFDATFHTNVAVNSSGHCQYLPPGIFKSSCPMDLKNFPMDVQTCKLKFGSWSYGGWSLDLQMQEADISGYIPNGEWDLVGIPGKRSERFYECCKEPYPDVTFTVTMRRRMGYYLIQMYIPSLLIVILSWISFWINMDAAPARVGLGITTVLTMTTQSSGSRASLPKVSYVKAIDIWMAVCLLFVFSALLEYAAVNFVSRQHKELLRFRRKRRHHKSPMLNLFQEDEAGEGRFNFSAYGMGPACLQAKDGISVKGANNSNTTNPPPAPSKSPEEMRKLFIQRAKKIDKISRIGFPMAFLIFNMFYWIIYKIVRREDVHNQ
modifications: synthetic sequence of chimeric LGIC
- YFP fluorescence quenching using CNL001 (1 nM CNL001, first column): −8.554%
- YFP fluorescence quenching using CNL001 (1 nM CNL001, second column): −13.711%
- YFP fluorescence quenching using TC-5619/Bradanicline (1 nM brd): 0.008%
- YFP fluorescence quenching using TC-5619/Bradanicline (3 nM brd): 43.21%
- YFP fluorescence quenching using Varenicline (3 nM var, first column): 74.835
- YFP fluorescence quenching using Varenicline (3 nM var, second column): 76.119
- YFP fluorescence quenching using CNL001 (10 nM CNL001, first column): 39.631%
- YFP fluorescence quenching using CNL001 (10 nM CNL001, second column): 66.809%
- YFP fluorescence quenching using TC-5619/Bradanicline (10 nM brd): 77.672%
- YFP fluorescence quenching using TC-5619/Bradanicline (30 nM brd): 76.277%
- YFP fluorescence quenching using Varenicline (30 nM var, first column): 77.608
- YFP fluorescence quenching using Varenicline (30 nM var, second column): 79.015
- YFP fluorescence quenching using CNL001 (50 nM CNL001, first column): 82.122%
- YFP fluorescence quenching using CNL001 (50 nM CNL001, second column): 82.031%
- YFP fluorescence quenching using ABT-126 (50 nM abt): −27.01%
- YFP fluorescence quenching using CNL001 (100 nM CNL001, first column): 83.312%
- YFP fluorescence quenching using CNL001 (100 nM CNL001, second column): 83.986%
- YFP fluorescence quenching using ABT-126 (100 nM abt): −18.76%
- YFP fluorescence quenching using TC-5619/Bradanicline (100 nM brd): 76.856%
- YFP fluorescence quenching using ABT-126 (300 nM abt): −17.8%
- YFP fluorescence quenching using TC-5619/Bradanicline (300 nM brd): 75.32%
- YFP fluorescence quenching using Varenicline (300 nM var, first column): 80.71
- YFP fluorescence quenching using Varenicline (300 nM var, second column): 79.002
- YFP fluorescence quenching using Varenicline (500 nM var, first column): 78.709
- YFP fluorescence quenching using Varenicline (500 nM var, second column): 78.884
- YFP fluorescence quenching using CNL001 (1 uM CNL001, first column): 84.363%
- YFP fluorescence quenching using CNL001 (1 uM CNL001, second column): 83.877%
- YFP fluorescence quenching using ABT-126 (1 uM abt): −6.55%
- YFP fluorescence quenching using Varenicline (1 uM var, first column): 79.688
- YFP fluorescence quenching using Varenicline (1 uM var, second column): 80
- percent quench of YFP fluorescence, 10 uM ach: −3.98%
- percent quench of YFP fluorescence, 100 uM ach: −11%
- percent quench of YFP fluorescence, 300 uM ach: −7.92%
- percent quench of YFP fluorescence, 500 uM ach (acetylcholine 500 uM): 7.36%
- percent quench of YFP fluorescence, 1 mM ach: 57.28%
- percent quench of YFP fluorescence, 3 mM ach: 60.54%
- percent quench of YFP fluorescence, 10 mM ach (acetylcholine 10 mM): 79.46%

B2: CODA1138: engineered chimeric LGIC receptor, W77F, R101F, L131D in SEQ ID NO: 33 (protein)
chain: MRCSPGGVWLALAASLLHVSLQGEFQRKLYKELVKNYNPLERPVANDSQPLTVYFSLSLLQIMDVDEKNQVLTTNIFLQMSWTDHYLQWNVSEYPGVKTVFFPDGQIWKPDILLYNSADERFDATFHTNVDVNSSGHCQYLPPGIFKSSCPMDLKNFPMDVQTCKLKFGSWSYGGWSLDLQMQEADISGYIPNGEWDLVGIPGKRSERFYECCKEPYPDVTFTVTMRRRMGYYLIQMYIPSLLIVILSWISFWINMDAAPARVGLGITTVLTMTTQSSGSRASLPKVSYVKAIDIWMAVCLLFVFSALLEYAAVNFVSRQHKELLRFRRKRRHHKSPMLNLFQEDEAGEGRFNFSAYGMGPACLQAKDGISVKGANNSNTTNPPPAPSKSPEEMRKLFIQRAKKIDKISRIGFPMAFLIFNMFYWIIYKIVRREDVHNQ
modifications: synthetic sequence of chimeric LGIC
- YFP fluorescence quenching using CNL001 (1 nM CNL001, first column): −6.175%
- YFP fluorescence quenching using CNL001 (1 nM CNL001, second column): 5.89%
- YFP fluorescence quenching using CNL002 (1 nM CNL002): −2.209%
- YFP fluorescence quenching using Varenicline (3 nM var, first column): 3.893
- YFP fluorescence quenching using Varenicline (3 nM var, second column): 1.107
- YFP fluorescence quenching using CNL001 (10 nM CNL001, first column): −2.032%
- YFP fluorescence quenching using CNL001 (10 nM CNL001, second column): 7.601%
- YFP fluorescence quenching using CNL002 (10 nM CNL002): 43.044%
- YFP fluorescence quenching using Varenicline (30 nM var, first column): 0.972
- YFP fluorescence quenching using Varenicline (30 nM var, second column): 0.872
- YFP fluorescence quenching using CNL001 (50 nM CNL001, first column): 9.263%
- YFP fluorescence quenching using CNL001 (50 nM CNL001, second column): 4.423%
- YFP fluorescence quenching using CNL002 (50 nM CNL002): 73.418%
- YFP fluorescence quenching using ABT-126 (50 nM abt): −11.71%
- YFP fluorescence quenching using CNL001 (100 nM CNL001, first column): 24%
- YFP fluorescence quenching using CNL001 (100 nM CNL001, second column): 30.448%
- YFP fluorescence quenching using CNL002 (100 nM CNL002): 81.66%
- YFP fluorescence quenching using ABT-126 (100 nM abt): −5.13%
- YFP fluorescence quenching using ABT-126 (300 nM abt): 15.09%
- YFP fluorescence quenching using Varenicline (300 nM var, first column): 2.282
- YFP fluorescence quenching using Varenicline (300 nM var, second column): −0.288
- YFP fluorescence quenching using Varenicline (500 nM var, first column): 3.637
- YFP fluorescence quenching using Varenicline (500 nM var, second column): −1.804
- YFP fluorescence quenching using CNL001 (1 uM CNL001, first column): 73.823%
- YFP fluorescence quenching using CNL001 (1 uM CNL001, second column): 73.271%
- YFP fluorescence quenching using CNL002 (1 uM CNL002): 81.69%
- YFP fluorescence quenching using ABT-126 (1 uM abt): 56.63%
- YFP fluorescence quenching using Varenicline (1 uM var, first column): −1.84
- YFP fluorescence quenching using Varenicline (1 uM var, second column): 6.36
- YFP fluorescence quenching using ABT-126 (10 uM abt): 75.93%
- percent quench of YFP fluorescence, 10 uM ach: −12.92%
- percent quench of YFP fluorescence, 30 uM ach: −15.36%
- percent quench of YFP fluorescence, 100 uM ach: −19.35%
- percent quench of YFP fluorescence, 300 uM ach: −14.79%
- percent quench of YFP fluorescence, 1 mM ach: 37.5%
- percent quench of YFP fluorescence, 3 mM ach: 61.73%

B3: CODA1157: engineered chimeric LGIC receptor, Q139E, S172D in SEQ ID NO: 33 (protein)
chain: MRCSPGGVWLALAASLLHVSLQGEFQRKLYKELVKNYNPLERPVANDSQPLTVYFSLSLLQIMDVDEKNQVLTTNIWLQMSWTDHYLQWNVSEYPGVKTVRFPDGQIWKPDILLYNSADERFDATFHTNVLVNSSGHCEYLPPGIFKSSCPMDLKNFPMDVQTCKLKFGSWDYGGWSLDLQMQEADISGYIPNGEWDLVGIPGKRSERFYECCKEPYPDVTFTVTMRRRMGYYLIQMYIPSLLIVILSWISFWINMDAAPARVGLGITTVLTMTTQSSGSRASLPKVSYVKAIDIWMAVCLLFVFSALLEYAAVNFVSRQHKELLRFRRKRRHHKSPMLNLFQEDEAGEGRFNFSAYGMGPACLQAKDGISVKGANNSNTTNPPPAPSKSPEEMRKLFIQRAKKIDKISRIGFPMAFLIFNMFYWIIYKIVRREDVHNQ
modifications: synthetic sequence of chimeric LGIC
- YFP fluorescence quenching using CNL001 (1 nM CNL001, first column): 68.362%
- YFP fluorescence quenching using CNL001 (1 nM CNL001, second column): 69.495%
- YFP fluorescence quenching using Varenicline (3 nM var, first column): −0.225
- YFP fluorescence quenching using Varenicline (3 nM var, second column): −1.954
- YFP fluorescence quenching using CNL001 (10 nM CNL001, first column): 75.078%
- YFP fluorescence quenching using CNL001 (10 nM CNL001, second column): 74.193%
- YFP fluorescence quenching using Varenicline (30 nM var, first column): 1.269
- YFP fluorescence quenching using Varenicline (30 nM var, second column): 5.972
- YFP fluorescence quenching using CNL001 (50 nM CNL001, first column): 77.481%
- YFP fluorescence quenching using CNL001 (50 nM CNL001, second column): 77.205%
- YFP fluorescence quenching using ABT-126 (50 nM abt): −26.77%
- YFP fluorescence quenching using CNL001 (100 nM CNL001, first column): 77%
- YFP fluorescence quenching using CNL001 (100 nM CNL001, second column): 77.042%
- YFP fluorescence quenching using CNL002 (100 nM CNL002): 80.62%
- YFP fluorescence quenching using ABT-126 (100 nM abt): −24.64%
- YFP fluorescence quenching using ABT-126 (300 nM abt): −10.64%
- YFP fluorescence quenching using Varenicline (300 nM var, first column): 6.84
- YFP fluorescence quenching using Varenicline (300 nM var, second column): 5.943
- YFP fluorescence quenching using Varenicline (500 nM var, first column): 8.717
- YFP fluorescence quenching using Varenicline (500 nM var, second column): 6.41
- YFP fluorescence quenching using CNL001 (1 uM CNL001, first column): 78.2%
- YFP fluorescence quenching using CNL001 (1 uM CNL001, second column): 76.244%
- YFP fluorescence quenching using CNL002 (1 uM CNL002): 81.32%
- YFP fluorescence quenching using ABT-126 (1 uM abt): 19.57%
- YFP fluorescence quenching using Varenicline (1 uM var, first column): 5.635
- YFP fluorescence quenching using Varenicline (1 uM var, second column): 7.068
- YFP fluorescence quenching using ABT-126 (10 uM abt): 55.64%
- percent quench of YFP fluorescence, 10 uM ach: −36.89%
- percent quench of YFP fluorescence, 30 uM ach: −37.78%
- percent quench of YFP fluorescence, 100 uM ach: −25.67%
- percent quench of YFP fluorescence, 300 uM ach: −18.94%
- percent quench of YFP fluorescence, 1 mM ach: 16.38%
- percent quench of YFP fluorescence, 3 mM ach: 45.71%
